Results on four substances are retold here after PMC10923862.

For assay [1], the target named is HexaPro spike without foldon (SARS-CoV-2 (Wuhan-Hu-1)) (UniProt P0DTC2). Description: SEC. For orientation: SEC sorts molecules by how far they enter the pores of the column.
The target in assay [2] is HexaPro, soluble SARS-CoV-2 spike ectodomain carrying a foldon domain (SARS-CoV-2 (Wuhan-Hu-1) | not stated) (UniProt P0DTC2). Description: SEC.
Assay [3] has the same target. The assay is described as follows: SEC-MALS.
Assay [4] deals with S-3P, soluble SARS-CoV-2 spike ectodomain with C-terminal foldon trimerization domain (SARS-CoV-2 (Wuhan-Hu-1) | not stated) (UniProt P0DTC2). The assay is described as follows: SEC.
Assay [5] shares this target. The assay is described as follows: SEC-MALS.
Assay [6] addresses S-locked, soluble SARS-CoV-2 spike ectodomain with the disulfide 413C-987C that locks the RBD in the closed conformation, without heterologous trimerization domain (SARS-CoV-2 (Wuhan-Hu-1)) (UniProt P0DTC2). The assay is described as follows: SEC-MALS.

Usually stoichiometry N stands for a count of units in the complex or per binding partner. With “HexaPro spike without foldon (from UniProt P0DTC2 14-1208)”, in assay [1], the stoichiometry N stood at 3.
Regarding “HexaPro, soluble SARS-CoV-2 spike ectodomain carrying a foldon domain (from UniProt P0DTC2 14-1208)”, the stoichiometry N in assay [2] and in assay [3] was 3 each time.
As to “S-3P, soluble SARS-CoV-2 spike ectodomain with C-terminal foldon trimerization domain (from UniProt P0DTC2 14-1208)”, the stoichiometry N in assay [4] and in assay [5] was 3 each time.
Substance “S-locked, soluble SARS-CoV-2 spike ectodomain with the disulfide 413C-987C that locks the RBD in the closed conformation, without heterologous trimerization domain (from UniProt P0DTC2 14-1208)” returned a stoichiometry N in assay [6] of 3.
